Assay results as given in patent US7138262.
Each block holds one binder with its values, some of them ahead of it.

Target: T1, mannose receptor on mouse J774E macrophage cells (mouse) (UniProt Q61830)
T1 sequence (looked up): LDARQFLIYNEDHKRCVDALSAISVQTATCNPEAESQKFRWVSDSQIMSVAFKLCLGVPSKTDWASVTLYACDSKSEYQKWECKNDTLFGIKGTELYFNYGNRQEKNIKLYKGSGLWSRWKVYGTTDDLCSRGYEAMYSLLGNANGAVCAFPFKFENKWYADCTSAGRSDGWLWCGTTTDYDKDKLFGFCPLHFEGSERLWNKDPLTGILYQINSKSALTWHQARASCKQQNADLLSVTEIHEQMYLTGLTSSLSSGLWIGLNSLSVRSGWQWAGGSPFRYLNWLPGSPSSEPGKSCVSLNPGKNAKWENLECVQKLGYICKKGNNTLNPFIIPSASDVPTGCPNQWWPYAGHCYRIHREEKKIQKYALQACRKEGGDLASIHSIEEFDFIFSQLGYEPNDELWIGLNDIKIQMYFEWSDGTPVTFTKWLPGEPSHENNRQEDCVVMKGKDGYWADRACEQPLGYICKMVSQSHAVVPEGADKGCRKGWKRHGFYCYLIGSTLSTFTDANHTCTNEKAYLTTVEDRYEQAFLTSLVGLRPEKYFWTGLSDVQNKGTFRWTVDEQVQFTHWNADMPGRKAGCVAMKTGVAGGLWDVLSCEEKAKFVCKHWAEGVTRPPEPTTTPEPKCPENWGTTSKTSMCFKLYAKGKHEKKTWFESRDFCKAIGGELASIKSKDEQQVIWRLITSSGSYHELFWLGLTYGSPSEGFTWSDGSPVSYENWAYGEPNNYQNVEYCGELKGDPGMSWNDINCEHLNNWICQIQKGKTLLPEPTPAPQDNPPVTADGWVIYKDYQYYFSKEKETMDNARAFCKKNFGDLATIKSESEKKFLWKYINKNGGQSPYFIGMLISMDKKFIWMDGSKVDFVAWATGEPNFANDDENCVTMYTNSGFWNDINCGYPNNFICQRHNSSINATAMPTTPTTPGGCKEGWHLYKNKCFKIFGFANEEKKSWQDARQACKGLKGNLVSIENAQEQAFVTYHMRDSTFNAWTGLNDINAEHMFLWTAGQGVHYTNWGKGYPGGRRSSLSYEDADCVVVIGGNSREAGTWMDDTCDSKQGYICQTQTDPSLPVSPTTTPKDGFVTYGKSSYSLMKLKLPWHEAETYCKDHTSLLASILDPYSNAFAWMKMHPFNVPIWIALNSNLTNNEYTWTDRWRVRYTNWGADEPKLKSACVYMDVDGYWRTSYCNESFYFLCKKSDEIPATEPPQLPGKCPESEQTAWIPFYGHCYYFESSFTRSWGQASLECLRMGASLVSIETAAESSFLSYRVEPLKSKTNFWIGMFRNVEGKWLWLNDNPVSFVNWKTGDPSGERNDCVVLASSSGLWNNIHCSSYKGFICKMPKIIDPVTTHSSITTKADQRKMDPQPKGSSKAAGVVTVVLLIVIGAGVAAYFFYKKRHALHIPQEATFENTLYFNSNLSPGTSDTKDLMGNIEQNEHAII
Experiment: cell-based or functional assay

Inhibition (%) of uptake into J774E cells by mannan: 53% | Internalization into J774E cells in the presence of 2 µg/mL mannan: glucocerebrosidase activity (Units/mg cell lysate), absolute (Units/mg cell lysate): 1680 | Internalization into J774E cells in the presence of 2 µg/mL mannan: glucocerebrosidase activity (Units/mg cell lysate), background corrected (Units/mg cell lysate): 1020 | Internalization into J774E cells: glucocerebrosidase activity (Units/mg cell lysate), absolute (Units/mg cell lysate): 2820 | Internalization into J774E cells: glucocerebrosidase activity (Units/mg cell lysate), background corrected (Units/mg cell lysate): 2160 | Uptake into J774E cells, fold over background: 3 fold
B1: Gene-Activated GCB (GA-GCB) from untreated HT-1080 cells (enzyme)
chain: ARPCIPKSFGYSSVVCVCNATYCDSFDPPTFPALGTFSRYESTRSGRRMELSMGPIQANHTGTGLLLTLQPEQKFQKVKGFGGAMTDAAALNILALSPPAQNLLLKSYFSEEGIGYNIIRVPMASCDFSIRTYTYADTPDDFQLHNFSLPEEDTKLKIPLIHRALQLAQRPVSLLASPWTSPTWLKTNGAVNGKGSLKGQPGDIYHQTWARYFVKFLDAYAEHKLQFWAVTAENEPSAGLLSGYPFQCLGFTPEHQRDFIARDLGPTLANSTHHNVRLLMLDDQRLLLPHWAKVVLTDPEAAKYVHGIAVHWYLDFLAPAKATLGETHRLFPNTMLFASEACVGSKFWEQSVRLGSWDRGMQYSHSIITNLLYHVVGWTDWNLALNPEGGPNWVRNFVDSPIIVDITKDTFYKQPMFYHLGHFSKFIPEGSQRVGLVASQKNDLDAVALMHPDGSAVVVVLNRSSKDVPLTIKDPAVGFLETISPGYSIHTYLWRRQ
modifications: N-linked glycans as processed by untreated HT-1080 cells (no mannosidase inhibitor)

Inhibition (%) of uptake into J774E cells by mannan: 73% | Internalization into J774E cells in the presence of 2 µg/mL mannan: glucocerebrosidase activity (Units/mg cell lysate), absolute (Units/mg cell lysate): 2980 | Internalization into J774E cells in the presence of 2 µg/mL mannan: glucocerebrosidase activity (Units/mg cell lysate), background corrected (Units/mg cell lysate): 2320 | Internalization into J774E cells: glucocerebrosidase activity (Units/mg cell lysate), absolute (Units/mg cell lysate): 9180 | Internalization into J774E cells: glucocerebrosidase activity (Units/mg cell lysate), background corrected (Units/mg cell lysate): 8530 | Uptake into J774E cells relative to GA-GCB from swainsonine treated cells: 2 fold | Uptake into J774E cells, fold over background: 14 fold
B2: Gene-Activated GCB (GA-GCB) from HT-1080 cells treated with kifunensine (1 µg/mL) (enzyme)
chain: B1 chain
modifications: N-linked high mannose glycans (cells treated with the class 1 mannosidase inhibitor kifunensine, 1 µg/mL)

Inhibition (%) of uptake into J774E cells by mannan: 67% | Internalization into J774E cells in the presence of 2 µg/mL mannan: glucocerebrosidase activity (Units/mg cell lysate), absolute (Units/mg cell lysate): 2040 | Internalization into J774E cells in the presence of 2 µg/mL mannan: glucocerebrosidase activity (Units/mg cell lysate), background corrected (Units/mg cell lysate): 1380 | Internalization into J774E cells: glucocerebrosidase activity (Units/mg cell lysate), absolute (Units/mg cell lysate): 4790 | Internalization into J774E cells: glucocerebrosidase activity (Units/mg cell lysate), background corrected (Units/mg cell lysate): 4130 | Uptake into J774E cells, fold over background: 7 fold
B3: Gene-Activated GCB (GA-GCB) from HT-1080 cells treated with swainsonine (1 µg/mL) (enzyme)
chain: B1 chain
modifications: N-linked glycans not trimmed by Golgi mannosidase II (cells treated with the class 2 mannosidase inhibitor swainsonine, 1 µg/mL)
